Read-outs that look alike come from different tables or passages of the source.
How the values were obtained:
Assay in all cases: SPR
Human IGF2 (human) [1] = target: Human IGF2 (human)
Human IGF2 (human) [2] = target: Human IGF2 (human); remark: listed apart in the source
[3] = target: Echidna IGF2 (peak 2), purified recombinant (echidna)
Human IGF2 (human) [4] = target: Human IGF2 (human); remark: listed apart in the source
Chicken IGF2 (chicken) [5] = target: Chicken IGF2 (chicken) (UniProt P33717)
Sequence of Chicken IGF2 (chicken) (P33717 24-91): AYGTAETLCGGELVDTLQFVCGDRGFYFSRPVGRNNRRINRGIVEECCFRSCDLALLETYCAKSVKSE

[6] = target: Echidna IGF2 (peak 2), purified recombinant (echidna); remark: listed apart in the source
Chicken IGF2 (chicken) [7] = target: Chicken IGF2 (chicken) (UniProt P33717); remark: listed apart in the source
[8] = target: Echidna IGF2 (peak 2), purified recombinant (echidna); remark: listed apart in the source

Sequence of Human IGF2R domain 11 (wild type) (P11717 1508-1650): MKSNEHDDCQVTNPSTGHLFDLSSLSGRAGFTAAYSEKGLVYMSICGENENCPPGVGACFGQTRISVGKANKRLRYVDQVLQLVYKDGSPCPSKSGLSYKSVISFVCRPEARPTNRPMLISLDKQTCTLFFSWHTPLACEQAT

Row | Kd (Human IGF2 (human) [1]) [nM] | Kd (Human IGF2 (human) [2]) [nM] | Kd [3] [nM] | Kd (Human IGF2 (human) [4]) [nM] | Kd (Chicken IGF2 (chicken) [5]) [nM] | Kd [6] [nM] | kd1 (two state model, first step) (Human IGF2 (human) [1]) [s⁻¹] | Kd (Chicken IGF2 (chicken) [7]) [nM] | kd1 (two state model, first step) (Chicken IGF2 (chicken) [7]) [s⁻¹] | Kd [8] [nM] | kd1 (two state model, first step) [8] [s⁻¹] | ka1 (two state model, first step) (Human IGF2 (human) [1]) [m^-1 s^-1] | ka1 (two state model, first step) (Chicken IGF2 (chicken) [7]) [m^-1 s^-1] | Substance
1 | 427 | 325 | 328 | – | – | – | – | – | – | – | – | – | – | Chicken IGF2R domain 11 with echidna CD loop (domain or fragment)
2 | 244 | – | – | 329 | 412 | 385 | 0.106 | 244 | 0.259 | 256 | 0.138 | – | – | Echidna IGF2R domain 11 (domain or fragment)
3 | 46 | – | – | 64 | – | 77 | 0.23 | – | – | 53 | 0.106 | 5e+06 | – | Human IGF2R domain 11 (wild type) (from UniProt P11717 1508-1650) (domain or fragment)
4 | 15.3 | – | – | 15.5 | – | – | 0.044 | – | – | – | – | 2.76e+06 | – | Human IGF2R domain 11^(E1544K, K1545S, L1547V) (clone E4) (from UniProt P11717 1508-1650) (domain or fragment)
5 | 130 | – | – | 164 | 219 | 157 | 0.108 | 171 | – | 135 | 0.106 | – | 1.76e+06 | Opossum IGF2R domain 11 (domain or fragment)

— PMC4658703
